Biological target: the molecule itself
Assay: SEC + SEC-MALS

B1: SMGL-1 (purified, GST tag cleaved) (natural protein, C. elegans, UniProt P90841 1-1615, looked up)
chain: MAHMRGTNHEKEKHDDENSKILLKERYNLLKWLTNVEMRSPNVLIPVQIANYVESLPFCKLAVSPKCDRVAVMSYARQLDIYQISGEILTHESSVQVLEETSPEYCILQFSSSSTLILSSRSTPHIDVFDSMGAYLYDIPLELHEGIFDVNSAICGMQTFENYSSSSNDKFIEILYVLQYSGVFSAFKIGRLSKYVKMWTVQLDIGQTGSFTVLPQYNLLLVASHHKESTSLVPPAGLCSFRMMDMDPFVEPIRISTPDGGFFSRLPFSTSFMSYLPRMSLSFDSQLLVSVSTSGSLYLFEIPSLHVKFSFNFISGPRPVDACFVDSDEIAVIYDNGYLLRCSLEDLEEKMYSVKMRSKKEIDEEPELKDFYSEQTVMVSPAQREIFLLTADGDNSFLRKAAHKRVQLAGQLWFYTVWNSLKKLVGMAMGEPAEQLHFETHIAKFEFSLIHSPTRTLQELFDRTLKEHDYTRARELAETYDTIDIYVVLKSEWIDKCSKNKVTVEDVEDILKRIGDSEWAAEQCASADSDDFEVHKALIDLGLSLGESSVTWQIRLLHHWRMLEVCRIKGDVDIYMMARNGSCLDAALTFAHNGDIDSLTRIIESNMAVMKHHQKRILSAIPTCTSPTKYEILMPKREDGETEEQWELEEQNDGIYERLDKILMEHPDAESLIRSINVGNIPNEETFDFTSWVRETLPKIDFECGMTDICVNLLQIAYERGYEDLIHDLATWQPYAQYIRICSSVSESITSFQDSTMKSFTDRFSRLLDSELIKNAKDIVSLIEWKIKMTSSDSEESIEDRLRDAVTTLMKATNERTTKVLVAFRNELPSVVDDHVILEVLLNMTSTGADLMKSLGDLPVDKYVNVTSSLGSLMSRGVKMTFKSIFESMKEPDGARRVLIKLSRSGNCSNFDDWMSLRDDIYDMANGIYEDLVTTEEALEIFAGEILEEERIGSHPELMELVLTLNPKEDNSNPRKLSIAKSADVLLSKSDELMNEATQRGDPLLGRSRFFAVAARPISPKKSKEKLDWLDAIDAALELGCTMMPIAIKFCEHDSLLRDVVGLGSNYKQGKKILSFAKQLNIDTPIATALSYCALAALNANDAVYLSKYIGEVMKAKGVPVVHKLCMQIMNSSHVPTDMEDVYSCAVLNSSEENLLDTVDAIASSEKRLSESRRCREIRLDDIPVSEAVVGDPMYTPMRLYNARKEISGDVKQKITFYGKRNLWETNYGKREGFDVMKRLYAHESSTVALCFSLFEPAENVETGELSWTKNDKLRRYERGLRFFQDRVPLSDLVTAPASAIINEANKGDASITAIDRIEDYGCDRRRFIGDAEYRTETIIGLAGTENEQIFADALELAEKYEIDEWKLHMASLEYLLDPSYNVPIIDVKQIMKSRKHLSKLRTKLDEFHSRLRSMVLPSLETNEQFLSYISLFADAEPEKKLGDTIKKIISKMKNVEAIRLWTDAKYLSSTLNKIPDGNLRAIISSVLQFPKIGVKACEMSAEFLLEGDDTRPPSNPFTLFLLMRSNIEDFLELVANKKSRDDEIAYLDQAVILLENTPKVPPLLLDAIKMRSEKMHRATVTPEPATPSNGSSTGLSSYFSNTEDNSGMMKRRKN
In the case of B1, the “stoichiometry N” value is reported as 4.

Reference: article PMC10686230 (The Journal of Cell Biology, 2023)
